Results: paper PMC10607743, “An Enzymatic Strategy for the Selective Methylation of High-Value-Added Tetrahydroprotoberberine Alkaloids” (International Journal of Molecular Sciences, 2023)

Assays:
[1] = biological target: T1, PsSOMT (Papaver somniferum, UniProt I3PLQ7); conditions: 100 mM Tris-HCl, 37 °C, substrate 50-500 μM; methyl donor SAM (concentration and pH not given)
T1 construct: gene SOMT3

[2] = test system: Oc1cc2c(cc1O)C1Cc3ccc(O)c(O)c3CN1CC2; assay: purified protein; conditions: 100 mM Tris-HCl, 37 °C, substrate 50-500 μM, methyl donor SAM (concentration and pH not given)

T1 sequence (I3PLQ7 whole entry): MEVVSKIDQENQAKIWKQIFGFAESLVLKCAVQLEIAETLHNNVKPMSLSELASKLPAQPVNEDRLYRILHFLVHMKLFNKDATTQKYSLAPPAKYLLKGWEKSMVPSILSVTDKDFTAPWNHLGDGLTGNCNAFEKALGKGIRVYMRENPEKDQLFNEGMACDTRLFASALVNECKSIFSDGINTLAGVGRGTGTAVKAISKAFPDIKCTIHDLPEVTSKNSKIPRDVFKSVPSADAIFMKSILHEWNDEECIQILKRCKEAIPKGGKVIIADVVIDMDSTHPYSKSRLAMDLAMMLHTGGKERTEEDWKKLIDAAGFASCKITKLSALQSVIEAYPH

Compound	Km [1] [µM]	Km [2] [µM]	Vmax [2] [µmol/min/mg]	kcat [2] [s⁻¹]	kcat/Km [2] [M⁻¹ s⁻¹]
Oc1cc2c(cc1O)C1Cc3ccc(O)c(O)c3CN1CC2 (centres unmarked) [2,3,9,10-tetrahydroxyberbine]	53.8 ± 12				
Cj4’OMT (Coptis japonica)		83.50 ± 19.72	1.09	1.09 ± 0.08	13000
